Results reported in patent US7063950.

Biological target: human neuronal calcium channel α1B-1α2bβ1-2 (human)
Assay: ω-CgTx binding to transiently transfected HEK293 cells (plasmid ratio 2:1.8:1)

Substance: ω-CgTx GVIA (from UniProt P01522 46-72) (peptide)
- Kd: 0.0546 nM
- binding capacity (Bmax) (sites per cell): 28700
